This data set deals with the molecule itself. The data set is described as follows: dynamic light scattering.

Consider one protein from doi:10.1101/2022.07.04.498777 (bioRxiv, 2022).

As to SLLTEVETPIRNEWGCRCNDSSD [Peptide G37], the binding result is listed as “binds”.
